Results published in patent US11559589B2, “Compositions and methods for detection and modulation of T cell mediated immune responses against viral vectors utilized for gene therapy” (The Children's Hospital of Philadelphia, priority 2006, dated 2023).
Where two headings read alike, the source gives them in different places.

How the values were obtained:
[1] = target: T1, AAV-2 capsid (AAV-p74 peptide) peptide on HLA-B*07:02 (human); experiment: multimer staining
T1 peptide: VPQYGYLTL

[2] = target: MHC molecules displaying the AAV peptide epitopes on Malme-3 fibroblasts (UniProt P01889+P03135)
Procedure: AAV-scTCR multimer was tested in vitro using a normal human fibroblast cell line positive for HLA-B*0702 (Malme-3 available from the ATCC repository). Cells were peptide loaded with AAV capsid epitopes at a concentration of 10 ug/ml for 2 hrs at 37° C. and then stained with the AAV-scTCR multimer (FIG. 10); alternatively, cells were transduced with an AAV vector at an MOI of 5×10^5 or 1×10^6 and stained 24 or 48 hours later (FIG. 11).

[3] = target: AAV-p74 peptide/HLA-B7 complexes on cell surface of JyA2B7 cells (UniProt P01889+P03135); details: for minimum AAV-p74 peptide loading concentration stained: 0.5 μg multimer
Source text: AAV-p74 peptide loaded HLA-B7-positive human lymphoblastoid cell line (JyA2B7) was used to determine whether AAV-a-scTCR can bind to AAV-p74 peptide/HLA-B7 complexes on cell surface.

[4] = system: lymph node cells and splenocytes from HLA-B*0702 transgenic mice; experiment: AAV-scTCR multimer staining of cells from HLA-B*0702 transgenic mice after intravenous AAV vector; type: cell-based
Source text: FIGS. 12A and 12B are a pair of histograms swing AAV-scTCR multimer staining of CD11c+CD19-cells collected from HLA B*0702 mice one week after intravenous infusion of 1E11 vector genomes (vg) of AAV.

AAV-p74 peptide/HLA-B7 complexes on cell surface of JyA2B7 cells, sequence (P61769 21-119): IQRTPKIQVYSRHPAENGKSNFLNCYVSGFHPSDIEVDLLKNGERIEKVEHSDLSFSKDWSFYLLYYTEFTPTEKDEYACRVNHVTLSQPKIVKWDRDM
AAV-p74 peptide/HLA-B7 complexes on cell surface of JyA2B7 cells, sequence (P01889 25-362): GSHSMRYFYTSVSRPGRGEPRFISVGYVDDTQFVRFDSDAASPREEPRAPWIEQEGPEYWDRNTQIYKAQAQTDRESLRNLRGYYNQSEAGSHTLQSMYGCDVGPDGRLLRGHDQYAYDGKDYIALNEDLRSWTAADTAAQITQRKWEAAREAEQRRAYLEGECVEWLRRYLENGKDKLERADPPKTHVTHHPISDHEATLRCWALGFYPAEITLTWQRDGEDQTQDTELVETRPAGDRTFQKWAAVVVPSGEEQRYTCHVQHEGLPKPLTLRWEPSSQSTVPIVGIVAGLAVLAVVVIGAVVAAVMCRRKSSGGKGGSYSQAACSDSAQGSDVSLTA
MHC molecules displaying the AAV peptide epitopes on Malme-3 fibroblasts, sequence (P61769 21-119): as the sequence (P61769 21-119) above
MHC molecules displaying the AAV peptide epitopes on Malme-3 fibroblasts, sequence (P01889 25-362): as the sequence (P01889 25-362) above

B1: AAV-a-AJ31 (TCR, V domains shown)
Valpha: SQQGEEDPQALSIQEGENATMNCSYKTSINNLQWYRQNSGRGLVHLILIRSNEREKHSGRLRVTLDTSKKSSSLLITASRAADTASYFCATLYNARLMFGDGTQLVVKP
Vbeta: NAGVTQTPKFRVLKTGQSMTLLCAQDMNHEYMYWYRQDPGMGLRLIHYSVGEGTTAKGEVPDGYNVSRLKKQNFLLGLESAAPSQTSVYFCASRSGSAGAFFGQGTRLTVV
binding result [1]: recognises

B2: p74-scTCR multimer: PE-conjugated multimer generated from biotinylated AAV-a-AJ31 scTCR-BirA fusion protein (protein)
alpha: B1 Valpha
beta: B1 Vbeta
modifications: left off: things letters cannot carry; a dimerising Fc or GST; small tags and cut ends
notes: PE-conjugated multimer generated from biotinylated AAV-a-AJ31 scTCR-BirA fusion protein
staining of peptide-loaded fibroblasts ([2]; AAV capsid epitopes 10 ug/ml, 2 hrs, 37° C.): positive staining | staining of AAV-transduced fibroblasts ([2]; AAV vector MOI 5×10^5 or 1×10^6, stained 24 or 48 hours later): positive staining | minimum AAV-p74 peptide loading concentration stained ([3]; PLE added during loading): 1 µg/mL | minimum AAV-p74 peptide loading concentration stained ([3]; typical conditions): 5 µg/mL | staining of JyA2B7 cells ([3]; cells loaded with 50 μg/ml AAV-p74 peptide, 0.025 μg/test multimer): Specific staining | staining of lymph node cells and splenocytes [4]: positive staining

B3: AAV-b-scTCR-BirA (TCR, V domains shown)
Valpha: TQLLEQSPQFLSIQEGENLTVYCNSSSVFSSLQWYRQEPGEGPVLLVTVVTGGEVKKLKRLTFQFGDARKDSSLHITAAQPGDTGLYLCAGKKTNDYKLSFGAGTTVTVRA
Vbeta: ETGVTQTPRHLVMGMTNKESLKCEQHLGHNAMYWYKQSAKKPLELMFVYSLEERVENNSVPSRFSPECPNSSHLFLHLHTLQPEDSALYLCASSQDRVNLAGEQYFGPGTRLTVT
binding result [1]: recognises
